Measurements: patent publication CN116813758A (INST MICROBIOLOGY CAS, dated 2023)

Molecular target: SARS-CoV-2原始毒株的RBD蛋白 (SARS-CoV-2 RBD-his) (SARS-CoV-2原始毒株, UniProt P0DTC2 319-541)

B1: 单链纳米抗体S43 (S43-his蛋白) (VHH)
VHH: QVQLQESGGGLVQPGGSLRLTCAPSGFTLDYYAIGWFRQAPGKEREGVSCISSNNSTYYADSVKGRFTISRDNAKNTVYLQMNSLKPEDTAVYYCAAEPDYSGVYYYTCGWTDFGSWGQGTQVTVSS
- Kd: 0.12 nM
